Reference: patent publication US20250042956A1 (University of California, published 2025)
Blank lines part the entries; values can stand above or below the binder they belong to.

How the values were obtained:
[1] = molecular target: T1, PIAL2 (yeast two hybrid GAL4 fusion) (Arabidopsis thaliana, UniProt F4JYG0 1-760); assay: yeast two hybrid
T1 construct: cDNA cloned into Gateway Y2H vectors; not shown: GAL4-AD or GAL4-BD (pGADT7-GW / pGBKT7-GW)
T1 sequence: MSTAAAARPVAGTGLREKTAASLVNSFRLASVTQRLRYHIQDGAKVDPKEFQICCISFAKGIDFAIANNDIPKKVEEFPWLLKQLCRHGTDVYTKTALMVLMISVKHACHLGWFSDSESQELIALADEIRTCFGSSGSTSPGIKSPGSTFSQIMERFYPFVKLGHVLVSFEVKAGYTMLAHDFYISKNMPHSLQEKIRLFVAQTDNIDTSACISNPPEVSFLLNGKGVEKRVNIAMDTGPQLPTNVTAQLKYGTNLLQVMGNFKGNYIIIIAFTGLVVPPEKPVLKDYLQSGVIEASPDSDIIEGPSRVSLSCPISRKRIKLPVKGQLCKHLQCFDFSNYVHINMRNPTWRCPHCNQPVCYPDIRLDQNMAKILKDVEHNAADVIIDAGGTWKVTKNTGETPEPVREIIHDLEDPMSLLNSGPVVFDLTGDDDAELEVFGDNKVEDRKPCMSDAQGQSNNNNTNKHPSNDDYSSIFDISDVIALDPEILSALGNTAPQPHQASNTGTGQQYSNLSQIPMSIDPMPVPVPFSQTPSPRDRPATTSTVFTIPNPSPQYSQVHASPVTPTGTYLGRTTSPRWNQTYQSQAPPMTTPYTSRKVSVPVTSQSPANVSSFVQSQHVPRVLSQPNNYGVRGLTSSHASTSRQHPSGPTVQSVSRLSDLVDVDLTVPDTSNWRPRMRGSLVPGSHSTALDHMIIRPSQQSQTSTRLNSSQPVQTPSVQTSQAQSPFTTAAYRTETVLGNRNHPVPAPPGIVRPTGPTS
Text: The cDNA sequences of PIAL1, PIAL2, MOM2, MORC6, and MOM1 CMM2 domain (aa1660-aa1860, (see e.g., Han, Plant Cell Rep., 2016)) were first cloned into gateway entry vectors followed by LR reaction with pGBKT7-GW (Addgene 61703) and pGADT7-GW (Addgene 61702) destination vectors. Pairs of plasmid DNA for the desired protein interaction to be tested were co-transformed into the yeast strain AH109. Combinations of the empty pGBKT7-GW or pGADT7-GW vectors and the plasmids of desired proteins were used for transformation of yeast cells to test for self-activation. Transformed yeast cells were plated on synthetic dropout medium without Trp and Leu (SD-TL) and incubated for 2-3 days to allow for the growth of positive colonies carrying both plasmids. Three yeast colonies of each tested protein interaction pairs were picked and mixed in 150 μl 1×TE solution, and 3 μl of the 1×TE solution with the yeast cells were blotted on synthetic dropout medium without Trp, Leu, and His (SD-TLH) and with 5 mM 3-amino-1,2,4-triazole (3AT) to inhibit background growth. Growth of yeast on SD-TLH with 5 mM 3AT medium after 2-3 days of incubation indicates the interaction between the GAL4-AD fusion protein and the GAL4-BD fusion protein.

AT4G35510.1 TRBIP1 [2] = molecular target: T2, AT4G35510.1 TRBIP1 (Arabidopsis thaliana); assay: X-link IP-MS
T2 construct: Endogenous protein found by mass spectrometry
T2 chain: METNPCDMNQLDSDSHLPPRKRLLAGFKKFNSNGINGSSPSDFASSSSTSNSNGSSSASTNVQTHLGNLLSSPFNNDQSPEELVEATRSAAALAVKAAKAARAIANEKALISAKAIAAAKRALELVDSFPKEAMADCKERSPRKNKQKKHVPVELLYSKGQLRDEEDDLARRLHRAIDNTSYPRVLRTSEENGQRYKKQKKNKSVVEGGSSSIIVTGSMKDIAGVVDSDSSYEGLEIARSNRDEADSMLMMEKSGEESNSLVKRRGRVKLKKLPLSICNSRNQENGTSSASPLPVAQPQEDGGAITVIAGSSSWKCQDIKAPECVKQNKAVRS

AT2G17540.2 TRBIP2 [3] = molecular target: T3, AT2G17540.2 TRBIP2 (Arabidopsis thaliana); assay: X-link IP-MS
T3 construct: Endogenous protein found by mass spectrometry
T3 chain: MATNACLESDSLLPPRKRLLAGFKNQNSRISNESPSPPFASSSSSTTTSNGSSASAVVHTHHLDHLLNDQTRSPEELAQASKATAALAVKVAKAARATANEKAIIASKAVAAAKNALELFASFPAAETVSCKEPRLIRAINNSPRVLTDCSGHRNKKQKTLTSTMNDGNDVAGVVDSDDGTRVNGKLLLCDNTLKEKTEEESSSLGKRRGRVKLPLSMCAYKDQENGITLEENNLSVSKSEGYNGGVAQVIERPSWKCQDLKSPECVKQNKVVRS

AT4G35510.1 TRBIP1 [4] = molecular target: T2, AT4G35510.1 TRBIP1; assay: IP-MS rep 1
Protocol: (§1) The method of IP-MS used in this Example has been described in a recent paper (see e.g., Xue, Nat. Comm., 2021). Ten grams of unopened floral buds from Col-0 wild type and FLAG-tag transgenic plants, including PHD1, MOM1, AIPP3, MOM2, MORC6, PIAL2, TRB1, TRB2, TRB3, JMJ14, HD2A, HD2B, and ELF7 were collected and ground into fine powder with liquid nitrogen. These samples were resuspended with 25 mL IP buffer and homogenized until lump-free by dounce homogenizer. The lysate was filtered through Miracloth and incubated with 250 μL anti-FLAG M2 magnetic beads (Sigma) at 4° C. for 2 hours. The magnetic beads were washed with IP buffer and eluted with TBS containing 250 μg/mL 3×FLAG peptides. The eluted proteins were precipitated with trichloroacetic acid (Sigma) and subject to MS analyses as described previously (see e.g., Xue, Nat. Comm., 2021).

AT2G17540.2 TRBIP2 [5] = molecular target: T3, AT2G17540.2 TRBIP2; assay: IP-MS rep 1
Protocol: as §1

AT4G35510.1 TRBIP1 [6] = molecular target: T2, AT4G35510.1 TRBIP1; assay: IP-MS rep 2
Protocol: as §1

AT2G17540.2 TRBIP2 [7] = molecular target: T3, AT2G17540.2 TRBIP2; assay: IP-MS rep 2
Protocol: as §1

binding result [1]: binds
B1: MORC6 (yeast two hybrid GAL4 fusion) (other, Arabidopsis thaliana, UniProt Q56Y74 1-663, looked up)
chain: MSHDRSVNVSHDAVIAKPERGTMLQSFSPRSHGSKGYSLPQDSEENRGSVGQSAGQSSTSVVDQVRSPADDAGVTSSSTICPAPVCRQFWKAGSYNDELSSKSQQPNGKNYLHVHPMFLHSNATSHKWAFGAVAELLDNAVDEIQNGATFVIVDKTTNPRDGATALLIQDDGGGMDPQAMRHCMGFGFSDKKSDSAIGRYGNGFKTSTMRLGADVIVFSRHSKNQTLTQSIGLLSYTYLTRTGHDRIVVPILDYEFNASAGEFKTLQDREHFISSLSILLEWSPFSTEAELLQQFDDVGPHGTKVIIYNMWLNSDAKLELDFDSVAEDILIEGSIKKTGSKIVNDHIASRFSYSLRVYLSILYLRIPETFKIILRGKVVEHHNVADDLMHPQYILYKPQAAGSEEALVVTTIGFLKEAPKVNLHGFCVYHKNRLIMPFWQVINYSSSRGRGVVGVLEANFVEPTHNKQDFEKTVLLQKLENRLKEMTVEYWSCHCVLIGYQVNKKPRLQIPQKVQPAGRQALSPPPGFQAVFPQGNTTSLPRVSTQPVLLEKRKEHPDSVASAALKRKVGNDDFTVPGHIRVEQFIHGSASQSQDIETVKLMEENKKLRAKCLDRKVRSQNLEVKAMNLRSELENYKSEYERLMVELQALDLVKDEHRRNVNT
notes: cDNA cloned into Gateway Y2H vectors; not shown: GAL4-AD or GAL4-BD (pGADT7-GW / pGBKT7-GW)

binding result [1]: binds
B2: MOM1 CMM2 domain (yeast two hybrid GAL4 fusion) (other, Arabidopsis thaliana, UniProt Q9M658 1660-1860, looked up)
chain: TSVAEPHISGSDACEMEISEPGPQVERSTFANLFHEGGVEHSAGVTALVPSLLNNGTEQIAVQPVPQIPFPVFNDPFLHELEKLRRESENSKKTFEEKKSILKAELERKMAEVQAEFRRKFHEVEAEHNTRTTKIEKDKNLVIMNKLLANAFLSKCTDKKVSPSGAPRGKIQQLAQRAAQVSALRNYIAPQQLQASSFPAP
notes: range 1660-1860; also called MOM1 CMM2 domain (aa1660-aa1860); not shown: GAL4-AD or GAL4-BD (pGADT7-GW / pGBKT7-GW)

IP-MS count (AT4G35510.1 TRBIP1 [2]): 17
IP-MS count (AT2G17540.2 TRBIP2 [3]): 3
IP-MS count (AT4G35510.1 TRBIP1 [4]): 24
IP-MS count (AT2G17540.2 TRBIP2 [5]): 16
IP-MS count (AT4G35510.1 TRBIP1 [6]): 38
IP-MS count (AT2G17540.2 TRBIP2 [7]): 20
B3: FLAG-TRB3 (other, not shown: small tags and cut ends)
chain: MGAPKLKWTPEEETALKAGVLKHGTGKWRTILSDPVYSTILKSRSNVDLKDKWRNISVTALWGSRKKAKLALKRTPLSGSRQDDNATAITIVSLANGDVGGQQIDAPSPPAGSCEPPRPSTSVDKIILEAITSLKRPFGPDGKSILMYIEENFKMQPDMKRLVTSRLKYLTNVGTLVKKKHKYRISQNYMAEGEGQRSPQLLLEGNKENTPKPEENGVKNLTKSQVGGEVMIMGMTEKEAAAAAARAVAEAEFAMAEAEEAAREADKAEAEAEAAHIFAKAAMKAVKYRMHSQTR
notes: FLAG-tagged TRB3 from its native promoter; tag position under the label FLAG-TRB3 not certain; also called TRB3-FLAG; TRB-FLAG
